Reference: patent US20260055143A1, “HIGH AFFINITY VARIANTS OF SH2 DOMAINS” (Axoiya Inc., priority 2023, published 2026)

Legend:
[1] = target: pTyr-containing peptide (pEZ) derived from Ezrin, PPV{pTyr}EPVS; experiment: fluorescence polarization; fold change over wt Fes SH2
[2] = target: pTyr-containing peptide (pEZ) derived from Ezrin, PPV{pTyr}EPVS; experiment: phage ELISA, phage-displayed clone on immobilized peptide
[3] = target: pTyr-containing peptide (pEZ) derived from Ezrin, PPV{pTyr}EPVS; experiment: fluorescence polarization, purified SH2 domain with fluorescein-labelled ezrin phosphopeptide

Fold Change [1]	binding signal for pEZ over that for the unphosphorylated peptide EZ [2]	IC50 [3]	Binder
77 fold	10 fold	17.4 nM	sFes^4, superbinder Fes SH2 domain variant (designed binder) MKIEEHHHHHHSSGKLGLNDIFEAQKIEWHESSGEDLYFQSGTTMDDYKDDDDKGGSEVQKPLHEQLWYHGAIPRAEVAELLVHSGDFLVRESQGRKVYVLSVLWDGLPRHFIIQSLDNLYRLEGEGFPSIPLLIDHLLSTQQPLTKKSGVVLHRAVPSR
28 fold	10 fold	48 nM	sFes^6, superbinder Fes SH2 domain variant (designed binder) MKIEEHHHHHHSSGKLGLNDIFEAQKIEWHESSGEDLYFQSGTTMDDYKDDDDKGGSEVQKPLHEQLWYHGAIPRAEVAELLVHSGDFIVRESQTYPGYVLSVLWDGLPRHFIIQSLDNLYRLEGEGFPSIPLLIDHLLSTQQPLTKKSGVVLHRAVPSR
95.9 fold	10 fold	14 nM	sFes^3, superbinder Fes SH2 domain variant (designed binder) MKIEEHHHHHHSSGKLGLNDIFEAQKIEWHESSGEDLYFQSGTTMDDYKDDDDKGGSEVQKPLHEQLWYHGAIPRAEVAELLVHSGDFLVRESPRIQEYVLSVLWDGLPRHFIIQSLDNLYRLEGEGFPSIPLLIDHLLSTQQPLTKKSGVVLHRAVPSR
344 fold	10 fold	3.9 nM	sFes^2, superbinder Fes SH2 domain variant (designed binder) MKIEEHHHHHHSSGKLGLNDIFEAQKIEWHESSGEDLYFQSGTTMDDYKDDDDKGGSEVQKPLHEQLWYHGAIPRAEVAELLVHSGDFLVRERQRKQEYVLSVLWDGLPRHFIIQSLDNLYRLEGEGFPSIPLLIDHLLSTQQPLTKKSGVVLHRAVPSR
493 fold	10 fold	2.7 nM	sFes^1 (SuperFes), superbinder Fes SH2 domain variant (designed binder) MKIEEHHHHHHSSGKLGLNDIFEAQKIEWHESSGEDLYFQSGTTMDDYKDDDDKGGSEVQKPLHEQLWYHGAIPRAEVAELLVHSGDFLVREGQSQPDYVLSVLWDGLPRHFIIQSLDNLYRLEGEGFPSIPLLIDHLLSTQQPLTKKSGVVLHRAVPSR
33.8 fold	10 fold	39.7 nM	sFes^5, superbinder Fes SH2 domain variant (designed binder) MKIEEHHHHHHSSGKLGLNDIFEAQKIEWHESSGEDLYFQSGTTMDDYKDDDDKGGSEVQKPLHEQLWYHGAIPRAEVAELLVHSGDFLVRESISKQGYVLSVLWDGLPRHFLIQSLDNLYRLEGEGFPSIPLLIDHLLSTQQPLTKKSGVVLHRAVPSR
